Measured values as given in patent US20210063414A1, “METHODS FOR PREVENTING AND/OR TREATING BONE LOSS CONDITIONS BY MODULATING IRISIN” (Dana-Farber Cancer Institute, Inc., priority 2018, published 2021).

Molecular target: T1, MLO-Y4 cell surface proteins (Mus musculus, UniProt B1AVY7)
T1 construct: endogenous in cells; host or cells: MLO-Y4
T1 sequence (B1AVY7 1-1312): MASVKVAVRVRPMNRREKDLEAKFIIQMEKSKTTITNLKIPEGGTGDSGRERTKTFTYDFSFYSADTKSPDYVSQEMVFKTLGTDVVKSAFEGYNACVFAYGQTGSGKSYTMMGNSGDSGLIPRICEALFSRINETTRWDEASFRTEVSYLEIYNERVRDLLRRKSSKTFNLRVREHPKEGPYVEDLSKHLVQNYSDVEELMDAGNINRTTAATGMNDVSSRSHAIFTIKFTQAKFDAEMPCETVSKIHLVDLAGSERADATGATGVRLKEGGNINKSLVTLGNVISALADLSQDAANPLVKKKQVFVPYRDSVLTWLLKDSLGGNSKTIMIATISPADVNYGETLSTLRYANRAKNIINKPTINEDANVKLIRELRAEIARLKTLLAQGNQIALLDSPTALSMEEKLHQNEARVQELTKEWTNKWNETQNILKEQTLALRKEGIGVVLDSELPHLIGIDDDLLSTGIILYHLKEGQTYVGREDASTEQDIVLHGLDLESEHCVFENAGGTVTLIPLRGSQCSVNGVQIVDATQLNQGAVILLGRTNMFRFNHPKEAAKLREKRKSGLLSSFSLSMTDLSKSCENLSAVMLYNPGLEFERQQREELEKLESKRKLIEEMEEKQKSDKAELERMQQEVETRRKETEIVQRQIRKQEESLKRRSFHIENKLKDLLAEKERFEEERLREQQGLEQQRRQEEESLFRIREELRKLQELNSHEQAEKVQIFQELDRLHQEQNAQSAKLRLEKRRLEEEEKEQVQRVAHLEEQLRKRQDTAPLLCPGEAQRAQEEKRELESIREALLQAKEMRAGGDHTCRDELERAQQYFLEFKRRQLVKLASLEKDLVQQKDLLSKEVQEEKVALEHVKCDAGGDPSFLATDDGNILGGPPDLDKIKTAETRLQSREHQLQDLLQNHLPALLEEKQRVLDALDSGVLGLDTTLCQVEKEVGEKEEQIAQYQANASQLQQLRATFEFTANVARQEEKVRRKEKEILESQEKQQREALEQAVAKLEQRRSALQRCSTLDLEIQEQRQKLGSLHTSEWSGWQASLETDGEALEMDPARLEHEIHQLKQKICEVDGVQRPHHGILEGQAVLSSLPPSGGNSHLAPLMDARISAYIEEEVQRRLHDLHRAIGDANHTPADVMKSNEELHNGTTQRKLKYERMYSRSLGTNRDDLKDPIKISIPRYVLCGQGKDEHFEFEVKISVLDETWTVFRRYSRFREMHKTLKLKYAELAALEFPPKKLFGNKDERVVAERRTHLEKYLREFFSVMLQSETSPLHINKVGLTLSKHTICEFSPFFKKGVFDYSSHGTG
Assay: Crosslinking/co-immunoprecipitation/mass spectrometry (TMT quantitative proteomics) to identify irisin receptors
Format: binding
Conditions: co-precipitated protein Kif16b (KI16B_MOUSE)
Outline: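 Relative protein abundance came from 6-plex TMT MS3 quantitation on an Orbitrap Fusion Lumos, after in-gel trypsin digestion of Coomassie-stained SDS-PAGE lanes. Input was a Ni-NTA pulldown (250 mM imidazole elution) of lysates from murine MLO-Y4 cells. These cells were treated on ice with His-tagged irisin or adipsin (10 nM, 20 min) in serum-free medium, then crosslinked with 1.5 mM DTSSP for 30 min.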

B1: irisin: secreted cleaved form of FNDC5; recombinant human/mouse irisin with C-terminal his tag produced in HEK293 cells (protein)
chain: DSPSAPVNVTVRHLKANSAVVSWDVLEDEVVIGFAISQQKKDVRMLRFIQEVNTTTRSCALWDLEEDTEYIVHVQAISIQGQSPASEPVLFKTPREAEKMASKNKDEVTMKE
modifications: left off: small tags and cut ends
notes: secreted cleaved form of FNDC5; recombinant human/mouse irisin with C-terminal his tag produced in HEK293 cells
- TMT signal-to-noise ratio: 528.649
- irisin/adipsin TMT signal-to-noise ratio: 0.473
